One block for each binder: values may come before it.
Molecular target: T1, peptide DQ, ApCPEB PLD residues 121-140 with an N-terminal dansyl moiety (Aplysia californica, dansyl moiety (D*) on the N-terminus)
T1 construct: source: synthetic peptide, bought: GenScript
T1 peptide: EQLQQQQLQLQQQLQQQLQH
Test: FRET or BRET + other: 1D 1H NMR; 20-mer peptides at 5 °C in 10 mM KH2PO4; excitation of Trp at 280 nm, dansyl emission at 530-550 nm; 1D 1H NMR with DSS as concentration standard
Conditions: both partners purified

binding result: binds
B1: peptide WQ, ApCPEB PLD residues 121-140 with an N-terminal Trp (peptide)
peptide: WEQLQQQQLQLQQQLQQQLQH
notes: Trp added at the N-terminus (excited at 280 nm as the fluorescence donor); Wild-type stretch with one added Trp as a fluorescence probe; source: synthetic peptide, bought: GenScript

binding result: binds
B2: peptide QW, ApCPEB PLD residues 121-140 with a C-terminal Trp (peptide)
peptide: EQLQQQQLQLQQQLQQQLQHW
notes: Trp added at the C-terminus (excited at 280 nm as the fluorescence donor); Wild-type stretch with one added Trp as a fluorescence probe; source: synthetic peptide, bought: GenScript

Source: paper PMC7953810, “Divergent CPEB prion-like domains reveal different assembly mechanisms for a generic amyloid-like fold” (BMC Biology, 2021)
